Where “and” joins values, the source holds several entries; their conditions need not be identical. Equal values may be shown once. Read-outs that look alike come from different tables or passages of the source. Bridge positions count the residues as written; N and C are the ends. Square brackets hold non-standard residues; d marks the D form. Ends that are not written are not given here. Abu(4-SO3H) = N[C@@H](CCS(=O)(=O)O)C(=O)O; PhLac = O=C(O)[C@@H](O)Cc1ccccc1
Tests used:
[1] = target: human glucagon receptor (human) (UniProt P47871); test: cell-based or functional assay
[2] = target: human GLP-1 receptor (human) (UniProt P43220); test: cell-based or functional assay
human glucagon receptor [3] = target: T1, human glucagon receptor (human, UniProt P47871 26-477); test: cell-based or functional assay
human GLP-1 receptor [4] = target: T2, human GLP-1 receptor (human, UniProt P43220 24-463); test: cell-based or functional assay
Target sequence in this assay (P43220 24-463): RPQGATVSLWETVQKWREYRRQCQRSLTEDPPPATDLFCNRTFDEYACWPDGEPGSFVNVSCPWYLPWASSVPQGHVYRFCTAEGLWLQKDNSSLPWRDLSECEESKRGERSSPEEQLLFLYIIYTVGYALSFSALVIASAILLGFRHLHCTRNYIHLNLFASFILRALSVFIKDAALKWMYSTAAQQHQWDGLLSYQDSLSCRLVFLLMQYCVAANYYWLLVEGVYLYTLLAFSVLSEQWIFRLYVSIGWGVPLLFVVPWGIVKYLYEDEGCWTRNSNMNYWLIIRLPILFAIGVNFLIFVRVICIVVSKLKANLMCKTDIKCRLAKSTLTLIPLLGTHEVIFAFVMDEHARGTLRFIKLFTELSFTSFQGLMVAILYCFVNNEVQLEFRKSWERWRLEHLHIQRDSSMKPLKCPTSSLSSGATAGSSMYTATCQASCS

human glucagon receptor [5] = target: T1, human glucagon receptor; test: cell-based or functional assay; remark: listed apart in the source
human GLP-1 receptor [6] = target: T2, human GLP-1 receptor; test: cell-based or functional assay; remark: listed apart in the source
human glucagon receptor [7] = target: T1, human glucagon receptor; test: cell-based or functional assay; remark: listed apart in the source
human GLP-1 receptor [8] = target: T2, human GLP-1 receptor; test: cell-based or functional assay; remark: listed apart in the source
human glucagon receptor [9] = target: T1, human glucagon receptor; test: cell-based or functional assay; remark: listed apart in the source
human GLP-1 receptor [10] = target: T2, human GLP-1 receptor; test: cell-based or functional assay; remark: listed apart in the source
human glucagon receptor [11] = target: T1, human glucagon receptor; test: cell-based or functional assay; remark: listed apart in the source
human GLP-1 receptor [12] = target: T2, human GLP-1 receptor; test: cell-based or functional assay; remark: listed apart in the source
human glucagon receptor [13] = target: T1, human glucagon receptor; test: cell-based or functional assay; remark: listed apart in the source
human GLP-1 receptor [14] = target: T2, human GLP-1 receptor; test: cell-based or functional assay; remark: listed apart in the source
human glucagon receptor [15] = target: T1, human glucagon receptor; test: cell-based or functional assay; remark: listed apart in the source
human glucagon receptor [16] = target: T1, human glucagon receptor; test: SPA competition vs 125I-glucagon, receptor membranes
human glucagon receptor [17] = target: T1, human glucagon receptor; test: cell-based or functional assay; remark: listed apart in the source
human glucagon receptor [18] = target: T1, human glucagon receptor; test: SPA competition vs 125I-glucagon, receptor membranes; remark: listed apart in the source
human glucagon receptor [19] = target: T1, human glucagon receptor; test: cell-based or functional assay; remark: listed apart in the source
human GLP-1 receptor [20] = target: T2, human GLP-1 receptor; test: cell-based or functional assay; remark: listed apart in the source
human glucagon receptor [21] = target: T1, human glucagon receptor; test: cell-based or functional assay; remark: listed apart in the source
human GLP-1 receptor [22] = target: T2, human GLP-1 receptor; test: cell-based or functional assay; remark: listed apart in the source
human glucagon receptor [23] = target: T1, human glucagon receptor; test: SPA competition vs 125I-glucagon, receptor membranes; remark: listed apart in the source
human glucagon receptor [24] = target: T1, human glucagon receptor; test: cell-based or functional assay; remark: listed apart in the source
human glucagon receptor [25] = target: T1, human glucagon receptor; test: SPA competition vs 125I-glucagon, receptor membranes; remark: listed apart in the source
human glucagon receptor [26] = target: T1, human glucagon receptor; test: cell-based or functional assay; remark: listed apart in the source
human glucagon receptor [27] = target: T1, human glucagon receptor; test: SPA competition vs 125I-glucagon, receptor membranes; remark: listed apart in the source
human glucagon receptor [28] = target: T1, human glucagon receptor; test: cell-based or functional assay; remark: listed apart in the source
human glucagon receptor [29] = target: T1, human glucagon receptor; test: cell-based or functional assay; remark: listed apart in the source
human glucagon receptor [30] = target: T1, human glucagon receptor; test: SPA competition vs 125I-glucagon, receptor membranes; remark: listed apart in the source
human glucagon receptor [31] = target: T1, human glucagon receptor; test: as above; remark: listed apart in the source
human glucagon receptor [32] = target: T1, human glucagon receptor; test: cell-based or functional assay; remark: listed apart in the source
human GLP-1 receptor [33] = target: T2, human GLP-1 receptor; test: cell-based or functional assay; remark: listed apart in the source
[34] = target: human glucagon receptor (human) (UniProt P47871); test: cell-based or functional assay; remark: listed apart in the source
[35] = target: human glucagon receptor (human) (UniProt P47871); test: cell-based or functional assay; remark: listed apart in the source
[36] = target: human GLP-1 receptor (human) (UniProt P43220); test: cell-based or functional assay; remark: listed apart in the source
[37] = target: human GLP-1 receptor (human) (UniProt P43220); test: cell-based or functional assay; remark: listed apart in the source
human glucagon receptor [38] = target: T1, human glucagon receptor; test: cell-based or functional assay; remark: listed apart in the source
human GLP-1 receptor [39] = target: T2, human GLP-1 receptor; test: cell-based or functional assay; remark: listed apart in the source
human glucagon receptor [40] = target: T1, human glucagon receptor; test: cell-based or functional assay; remark: listed apart in the source
human GLP-1 receptor [41] = target: T2, human GLP-1 receptor; test: cell-based or functional assay; remark: listed apart in the source
human GLP-1 receptor [42] = target: T2, human GLP-1 receptor; test: cell-based or functional assay; remark: listed apart in the source
human glucagon receptor [43] = target: T1, human glucagon receptor; test: cell-based or functional assay; remark: listed apart in the source
human GLP-1 receptor [44] = target: T2, human GLP-1 receptor; test: cell-based or functional assay; remark: listed apart in the source

Chain of human glucagon receptor (human) (P47871 26-477): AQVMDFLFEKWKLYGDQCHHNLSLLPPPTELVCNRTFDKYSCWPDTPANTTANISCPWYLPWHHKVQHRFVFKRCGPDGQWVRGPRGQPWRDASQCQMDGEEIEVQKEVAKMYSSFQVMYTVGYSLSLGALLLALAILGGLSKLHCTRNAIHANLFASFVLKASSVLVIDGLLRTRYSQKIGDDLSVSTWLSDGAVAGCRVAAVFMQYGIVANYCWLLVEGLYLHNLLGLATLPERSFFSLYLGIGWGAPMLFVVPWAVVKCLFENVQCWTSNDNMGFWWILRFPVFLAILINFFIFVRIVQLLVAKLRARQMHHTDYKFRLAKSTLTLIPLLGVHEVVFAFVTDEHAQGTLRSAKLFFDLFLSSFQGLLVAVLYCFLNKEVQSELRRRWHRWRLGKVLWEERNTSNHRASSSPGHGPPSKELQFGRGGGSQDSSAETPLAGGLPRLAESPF
T1 sequence (P47871 26-477): as above
Chain of human GLP-1 receptor (human) (P43220 24-463): as the sequence (P43220 24-463) above

## [E9, E16K20(lactam)]G(6-39) (peptide)
[1]
  Glu IC50: 0.042 µM
  Glucagon IC50: 0.042 µM
  Glucagon antagonism IC50 (inhibit 0.2-0.8 nM glucagon): 0.042 µM
[2]
  GLP-1 EC50: 0.036 µM
  GLP-1 agonism EC50: 0.0364 µM

## [d-Cys^5(20kDaPEG), E^9]Glucagon(aa5-29)-NH2 (peptide)
Human glucagon receptor [3]
  IC50 (cAMP, inhibit 0.2 mM Glucagon): 14.8 µM

## [E9, E16, K20] G(6-39) (peptide)
[2]
  GLP-1 agonism EC50: 1.04 µM

## [PLA6, E9, K12E16(Lactam)] glucagon(6-39) (peptide)
Human glucagon receptor [3]
  Glu IC50: 0.072 µM
  Glucagon IC50: 0.072 µM
Human GLP-1 receptor [4]
  GLP-1 EC50: 0.006 µM

B1: [PLA6, K12E16(lactam), D28]G(6-29) (peptide)
peptide: [PhLac]TSDYSKYLDERRAQDFVQWLMDT-NH2
modifications: lactam 7-11; N-terminus assumed
SMILES: CSCC[C@H](NC(=O)[C@H](CC(C)C)NC(=O)[C@H](Cc1c[nH]c2ccccc12)NC(=O)[C@H](CCC(N)=O)NC(=O)[C@@H](NC(=O)[C@H](Cc1ccccc1)NC(=O)[C@H](CC(=O)O)NC(=O)[C@H](CCC(N)=O)NC(=O)[C@H](C)NC(=O)[C@H](CCCNC(=N)N)NC(=O)[C@H](CCCNC(=N)N)NC(=O)[C@@H]1CCC(=O)NCCCC[C@H](NC(=O)[C@H](CO)NC(=O)[C@H](Cc2ccc(O)cc2)NC(=O)[C@H](CC(=O)O)NC(=O)[C@H](CO)NC(=O)[C@@H](NC(=O)[C@@H](O)Cc2ccccc2)[C@@H](C)O)C(=O)N[C@@H](Cc2ccc(O)cc2)C(=O)N[C@@H](CC(C)C)C(=O)N[C@@H](CC(=O)O)C(=O)N1)C(C)C)C(=O)N[C@@H](CC(=O)O)C(=O)N[C@H](C(N)=O)[C@@H](C)O
Human glucagon receptor [5]
  Glucagon antagonism IC50 (inhibit 0.2-0.8 nM glucagon): 0.0583 µM
Human GLP-1 receptor [6]
  GLP-1 agonism EC50: 0.0385 µM
Human glucagon receptor [7]
  Glucagon antagonism IC50 (inhibit 0.2-0.8 nM glucagon): 0.0583 µM
Human GLP-1 receptor [8]
  GLP-1 agonism EC50: 0.0385 µM
Human glucagon receptor [9]
  Glucagon IC50: 0.013 µM
Human GLP-1 receptor [10]
  GLP-1 EC50: 0.021 µM
Human glucagon receptor [11]
  Glucagon antagonism IC50 (inhibit 0.2-0.8 nM glucagon): 0.0583 µM
Human GLP-1 receptor [12]
  GLP-1 agonism EC50: 0.0385 µM
Human glucagon receptor [13]
  Glucagon IC50: 0.063 µM
Human GLP-1 receptor [14]
  GLP-1 EC50: 0.177 µM

B2: [hCys^9(SO3H)]Glucagon(aa6-29)-NH2 (peptide)
peptide: FTS[Abu(4-SO3H)]YSKYLDSRRAQDFVQWLMNT-NH2
notes: also called [hCys(SO3)9]Glucagon(aa6-29)-NH2
Human glucagon receptor [15]
  cAMP IC50: 0.133 µM
  cAMP pA2: 7.16
Human glucagon receptor [16]
  IC50: 0.0591 µM
Human glucagon receptor [17]
  cAMP IC50: 0.133 µM
  cAMP pA2: 7.16
Human glucagon receptor [18]
  IC50: 0.0591 µM

## HSQGTFTSDYSRYLDSRRAQDFVQWLMNK [Glucagon R12 K29]
Human glucagon receptor [19]
  cAMP Induction EC50: 0.00081 µM
Human GLP-1 receptor [20]
  cAMP Induction EC50: 0.00041 µM

## SQGTXTSEYSKYLDSRRAQDFVQWLMNT (depsipeptide bond between Thr5 and PLA6; C-terminal amide) [[Thr5-O-PLA6,E9]Glucagon(2-29)]
Human glucagon receptor [21]
  Glucagon antagonism IC50 (inhibit 0.5nM G): 0.00649 µM
Human GLP-1 receptor [22]
  GLP-1 agonism EC50: 1.31 µM

B3: [Glu^9]Glucagon(aa6-29)-NH2 (peptide)
peptide: FTSEYSKYLDSRRAQDFVQWLMNT-NH2
notes: also called [E^9]Glucagon(aa6-29)-NH2; peptide no; 11
Human glucagon receptor [23]
  IC50: 0.0364 µM
Human glucagon receptor [15]
  cAMP IC50: 0.0972 µM
  cAMP pA2: 7.16
Human glucagon receptor [24]
  cAMP (I/A)50 inhibition index: 486
  cAMP pA2: 7.16
Human glucagon receptor [25]
  IC50: 0.036 µM
Human glucagon receptor [26]
  cAMP Inhibition IC50: 0.097 µM
Human glucagon receptor [18]
  IC50: 0.0364 µM

B4: [PLA^6, D^9, D^28] Glucagon(aa6-29)-NH2 (peptide)
peptide: FTSDYSKYLDSRRAQDFVQWLMDT
modifications: PLA at position 6; C-terminal amide
notes: also called [PLA6, D9, D28]Glucagon(6-29)
Human glucagon receptor [21]
  Glucagon antagonism IC50 (inhibit 0.5nM G): 0.00903 µM
Human glucagon receptor [27]
  IC50: 0.009 µM
Human glucagon receptor [28]
  IC50 (cAMP, inhibit 0.1 nM Glucagon): 0.00132 µM

B5: [PLA^6, E^9]Glucagon(aa6-29)-NH2 (peptide)
peptide: [PhLac]TSEYSKYLDSRRAQDFVQWLMNT-NH2
notes: also called [PLA6, E9]; G(6-29); [PLA6, E9]Glucagon(6-29)
Human glucagon receptor [21]
  Glucagon antagonism IC50 (inhibit 0.5nM G): 0.0238 µM
Human glucagon receptor [27]
  IC50: 0.0123 µM
Human glucagon receptor [29]
  IC50 (cAMP, inhibit 0.8 mM Glucagon): 0.0648 µM
Human glucagon receptor [28]
  IC50 (cAMP, inhibit 0.1 nM Glucagon): 0.00239 µM
  IC50 (cAMP, inhibit 0.2 nM Glucagon): 0.0424 µM
Human glucagon receptor [30]
  fold increase of affinity relative to the native Phe6 analog: 3 fold
Human glucagon receptor [31]
  IC50: 0.0123 µM
Human glucagon receptor [32]
  Glucagon antagonism IC50 (inhibit 0.8 nM glucagon): 0.0947 µM
Human GLP-1 receptor [33]
  GLP-1 agonism EC50: 0.901 µM

## GTFTSEYSKYLDSRRAQDFVQWLMNT-NH2 (also called peptide no) [[Glu^9]Glucagon(aa4-29)-NH2]
Human glucagon receptor [24]
  cAMP pA2: 7.05
Human glucagon receptor [26]
  cAMP Inhibition IC50: 0.128 µM

## FTSEYSKYLDERRAQDFVQWLMNTGPSSGAPPPS (C-terminal amide) [[E9, E16]G(6-39)]
[34]
  Glucagon IC50: 0.762 µM
[35]
  Glu IC50: 0.762 µM
  Glucagon antagonism IC50 (inhibit 0.2-0.8 nM glucagon): 0.762 µM

## FTSEYSKYLDERRAQDFVQWLMNTGPSSGAPPPS (lactam bridge Lys12-Glu16 (native glucagon numbering); C-terminal amide) [E9, K12E16(lactam) glucagon(6-39)]
[34]
  Glucagon IC50: 2.01 µM
[35]
  Glu IC50: 2.01 µM
[36]
  GLP-1 EC50: 0.063 µM

## FTSDYSKYLDERRAQDFVQWLMNTGPSSGAPPPS (lactam bridge Lys12-Glu16; C-terminal amide) [D9, K12E16(Lactam) glucagon(6-39)]
[34]
  Glucagon IC50: 0.828 µM
[37]
  GLP-1 EC50: 0.018 µM
[35]
  Glu IC50: 0.828 µM
[36]
  GLP-1 EC50: 0.119 µM

## [PhLac]TSDYSKYLDERRAKDFVQWLMDT-NH2 (lactam 11-15) [[PLA6, E16K20(lactam), D28]G(6-29)]
Human glucagon receptor [38]
  Glucagon antagonism IC50 (inhibit 0.8 nM glucagon): 0.0137 µM
Human GLP-1 receptor [39]
  GLP-1 agonism EC50: 0.0106 µM
Human glucagon receptor [40]
  Glucagon antagonism IC50 (inhibit 0.8 nM glucagon): 0.0137 µM
Human GLP-1 receptor [41]
  GLP-1 agonism EC50: 0.0106 µM
Human glucagon receptor [5]
  Glucagon antagonism IC50 (inhibit 0.2-0.8 nM glucagon): 0.0117 µM and 0.0055 µM
Human GLP-1 receptor [6]
  GLP-1 agonism EC50: 0.0069 µM and 0.0042 µM
Human glucagon receptor [7]
  Glucagon antagonism IC50 (inhibit 0.2-0.8 nM glucagon): 0.0117 µM and 0.0055 µM
Human GLP-1 receptor [8]
  GLP-1 agonism EC50: 0.0069 µM and 0.0042 µM
Human GLP-1 receptor [42]
  GLP-1 agonism EC50: 0.0207 µM
Human glucagon receptor [43]
  Glucagon antagonism IC50 (inhibit 0.4 nM glucagon): 0.00414 µM and 0.00799 µM
Human GLP-1 receptor [44]
  GLP-1 agonism EC50: 0.048 µM
Human glucagon receptor [9]
  Glucagon IC50: 0.006 µM
Human GLP-1 receptor [10]
  GLP-1 EC50: 0.004 µM
Human glucagon receptor [32]
  Glucagon antagonism IC50 (inhibit 0.8 nM glucagon): 0.0203 µM
Human GLP-1 receptor [33]
  GLP-1 agonism EC50: 0.0182 µM

Reference: patent US20110098217A1 (INDIANA UNIVERSITY RESEARCH AND TECHNOLOGY, published 2011)
